These results are taken from patent US8598081B2, “Specific delivery of agrochemicals” (priority 2010, dated 2013).

Assay [1] concerns leaf surface of potato leaves. The experiment in a line: VHH binding to non-fixed leaf discs, potato. Set-up: species or system potato (variety Desiree). The following applies: 5 μg/ml, detection with anti-histidine Alexa-488. As to the method: VHH binding to non-fixed leaf discs of potato (variety Desiree), black nightshade, grass, wheat or azalea was investigated. For comparison, binding of CBM3a to non-fixed leaf discs of potato (variety Desiree) was analyzed in parallel. Leaf discs were prepared by punching a fresh potato leaf with a 5 mm belt hole puncher tool. Leaf discs were put immediately in wells of a 96-well plate containing 200 μl per well 5% MPBS or PBS, and incubated for 30 minutes. Leaf discs were transferred to solutions containing 5 μg/ml VHH antibody fragment, respectively, 5 μg/ml CBM3a in 2% MPBS or PBS and incubated for 60-90 minutes. Unbound VHH or CBM3a proteins were removed by washing three times with 2% MPBS or PBS. Bound VHH or CBM3a proteins were detected with incubation with monoclonal mouse anti-histidine antibodies directly conjugated with Alexa-488 fluorescent dye (Abd Serotec) in 1% MPBS for 1 hour. Unbound antibodies were removed by washing three times with PBS. Leaf discs were put on glass slides, covered with cover slips, and analyzed by microscopy or on a macrozoom microscope system (Nikon) or a SP5 confocal microscope system (Leica).

For another assay, the system named is gum arabic. The experiment in a line: VHH binding to gum arabic in ELISA. On the set-up: species or system acacia tree. The method, then: Titration of VHH antibody fragments was performed on ELISA plates (Maxisorp, Nunc) coated with 100 μl per well 100 μg/ml gum arabic in 50 mM carbonate pH 9.6. Plates were coated at 4° C. overnight and coating was continued at room temperature for 1 hour on the next day. Plates were washed three times with PBS/0.05%-TWEEN®-20 and blocked with 5% skimmed milk in PBS for 1 hour. Four-fold serial dilutions of purified VHH antibody fragments were prepared in 1% MPBS/0.05%-TWEEN®-20 in polypropylene 96-well plates. Antibody concentrations ranged from 3 μg/ml to 12 ng/ml. Antibody dilutions were transferred to the gum arabic-coated plates and VHH antibody fragments were allowed to bind for 1 hour at room temperature. Bound VHH were detected with sequential incubations with monoclonal mouse anti-histidine antibodies (Abd Serotec) and rabbit anti-mouse IgG whole molecule antibodies conjugated with alkaline phosphatase (RaM/AP) (Sigma) in 1% MPBS/0.05%-TWEEN®-20. Unbound antibodies were removed by washing three times with PBS/0.05%-TWEEN®-20 after each antibody incubation. The plates were washed an additional two times with PBS and 100 μl pNPP disodium hexahydrate substrate (Sigma) was added to each well. The absorbance at 405 nm was measured and plotted as function of antibody concentration (see Table 1).
(In an ELISA, binding on a coated surface is turned into a signal by an enzyme label.)

A further assay deals with T1, potato lectin (Solanum tuberosum, UniProt Q9S8M0).
T1 construct: purchased Sigma
T1 sequence (Q9S8M0 whole entry, looked up): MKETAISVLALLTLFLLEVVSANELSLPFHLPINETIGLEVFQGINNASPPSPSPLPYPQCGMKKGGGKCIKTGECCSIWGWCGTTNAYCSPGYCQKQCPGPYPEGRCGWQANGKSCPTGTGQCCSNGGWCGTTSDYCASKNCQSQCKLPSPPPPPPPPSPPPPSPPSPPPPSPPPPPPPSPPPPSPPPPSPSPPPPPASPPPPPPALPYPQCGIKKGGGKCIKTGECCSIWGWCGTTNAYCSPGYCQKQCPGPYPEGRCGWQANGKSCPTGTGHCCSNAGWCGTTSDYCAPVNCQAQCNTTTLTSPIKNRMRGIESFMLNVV
The experiment in a line: VHH binding to potato lectin in ELISA. The following applies: Table 2; Blank (no antigen coating); VHH 3 μg/ml. The method, then: ELISA plates (Maxisorp, Nunc) coated with 100 μl per well 100 μg/ml potato lectin (Sigma) in PBS were coated at 4° C. overnight and coating was continued at room temperature for 1 hour on the next day. Plates were washed three times with PBS/0.05%-TWEEN®-20 and blocked with 5% skimmed milk in PBS for 1 hour. VHH (3 μg/ml) were transferred to the potato lectin-coated plates and VHH antibody fragments were allowed to bind for 1 hour at room temperature. Bound VHH were detected with sequential incubations with monoclonal mouse anti-histidine antibodies (Abd Serotec) and rabbit anti-mouse IgG whole molecule antibodies conjugated with alkaline phosphatase (RaM/AP) (Sigma) in 1% MPBS/0.05%-TWEEN®-20. Unbound antibodies were removed by washing three times with PBS/0.05%-TWEEN®-20 after each antibody incubation. The plates were washed an additional two times with PBS and 100 μl pNPP disodium hexahydrate substrate (Sigma) was added to each well and the absorbance at 405 nm was measured (see Table 2).

B1: VHH 5D4: VHH sequence; SEQ ID NO:20 by order of the list (protein, listed as Lama glama)
VHH: QVQLQESGGGLVQPGGSLRLSCAASGFDMRRFGIGWFRQVAGKEREGVSCSNVHDGTTYYTNDVKGRFTIVRDNTKNMLYLQMNKLRPEDTAVYSCATTDCEATAWGTYRGYFGQGTQVTVSS
modifications: 5D4
On to B1, for which the “binding to native potato leaf surface (fluorescence microscopy)” value in assay [1] was “binding leaf surface, stomata, glandular trichomes, and leaf hairs”; in assay [1] (listed as 5D4) it was “clearly binding to trichomes, stomata and cuticle”. The “absorbance at 405 nm” value was found to be 0.530 with gum arabic (Table 2, gum arabic coating, VHH 3 μg/ml); 0.075 in the assay on gum arabic ([VHH] 3 μg/ml (200 nM), gum arabic − (well without gum arabic)); 0.072 in the assay with potato lectin.
